Data taken from patent US20240336701A1 (Novartis, published 2024).
Where a chain is given by its changes, count along the chain named.

B1: ANTI-HUMAN ENTPD2 MAB4 (antibody, human IgG1, kappa, V domains shown)
VH: QIQLQESGPGLVKPSQTLSLTCTVSGYSITSGYYWNWIRQHPGKGLEWIGYISYDADNNYNPSLKNRVTISRDTSKNQFSLKLSSVTAADTAVYYCAGGYYRYGLGSYRGSYYYVMDYWGQGTTVTVSS
VL: ETVLTQSPATLSVSPGERATISCKASQSVDYEGHSYMNWYQQKPGQAPRLLIYAASNLESGIPARFSGSGSGTDFTLTISSVEPEDAATYYCQQSNEDPPTFGGGTKLEIKR
B2: ANTI-HUMAN ENTPD2 MAB6 (antibody, human IgG1, kappa, V domains shown)
VH: B1 VH with I2V, I49M, V68I, R109S
VL: DTQMTQSPSSLSVSVGDRATITCKASQSVDYEGHSYMNWYQQKPGKAPKLLIYAASNLESGVPSRFSGSGSGTDFTLTISSVQPEDFATYYCQQSNEDPPTFGGGTKLEIKR
B3: ANTI-HUMAN ENTPD2 MAB5 (antibody, human IgG1, kappa, V domains shown)
VH: B1 VH
VL: B1 VL with E32D, H34N
B4: ANTI-HUMAN ENTPD2 MAB8 (antibody, human IgG1, lambda, V domains shown)
VH: QVQLQQSGPGLVKPSQTLSLTCAISGDSVSSSSAAWNWIRQSPSRGLEWLGRIYYRSKWYNDYAVSVKSRITINPDTSKNQFSLQLNSVTPEDTAVYYCARGSYVTSSYEGFDYWGQGTLVTVSS
VL: SYELTQPLSVSVALGQTARITCSGDNLPEKYAYWYQQKPGQAPVLVIYDDNKRPSGIPERFSGSNSGNTATLTISRAQAGDEADYYCQSYGKWGWTWVFGGGTKLTVLG
B5: ANTI-HUMAN ENTPD2 MAB9 (antibody, human IgG1, lambda, V domains shown)
VH: QVQLVQSGAEVKKPGSSVKVSCKASGGTFDSYAVSWVRQAPGQGLEWMGRIVPWLGHTQYAQKFQGRVTITADESTSTAYMELSSLRSEDTAVYYCARESPGYRYSFDVWDQGTLVTVSS
VL: SYELTQPLSVSVALGQTARITCSGDAIGEKYVYWYQQKPGQAPVLVIYDDNNRPSGIPERFSGSNSGNTATLTISRAQAGDEADYYCASYDLQQARWVFGGGTKLTVLG
B6: ANTI-HUMAN ENTPD2 MAB10 (antibody, human IgG1, lambda, V domains shown)
VH: B5 VH with H57F, Q59R
VL: B5 VL
B7: ANTI-HUMAN ENTPD2 MAB1 (antibody, human IgG1, kappa, V domains shown)
VH: EVQLVQSGAEVKKPGESLKISCKASGYTFTDYNMDWVRQMPGKGLEWMGDINPKYDISTYNQQFKGQVTISADKSIRTAYLQWSSLKASDTAMYYCARRGFFLYYGINYYYFDVWGQGTLVTVSS
VL: DIQLTQSPSSLSASVGDRVTITCSASSSVSYIHWFQQKPGKAPKLLIYSTSNLASGVPSRFSGSGSGTFFTLTISSLQPEDFATYFCHQWSSYPWTFGQGTKVEIKR
B8: ANTI-HUMAN ENTPD2 MAB2 (antibody, human IgG1, kappa)
heavy: not shown
light: EIVLTQSPATLSASPGERITLSCSASSSVSYIHWYQQKPGQAPRLLIYSTSNLASGIPARFSGSGSGTFYTLTISSVEPEDAAVYYCHQWSSYPWTFGGGTKLEIKRTVAAPSVFIFPPSDEQLKSGTASVVCLLNNFYPREAKVQWKVDNALQSGNSQESVTEQDSKDSTYSLSSTLTLSKADYEKHKVYACEVTHQGLSSPVTKSFNRGEC
B9: ANTI-HUMAN ENTPD2 MAB7 (antibody, human IgG1, kappa)
heavy: not shown
light: B8 light with R18E
B10: ANTI-HUMAN ENTPD2 MAB3 (antibody, human IgG1, kappa, V domains shown)
VH: QVQLVQSGAEVVKPGASVKISCKASGYTFTDYNMDWVKQAPGQRLEWIGDINPKYDISTYNQQFKGKATITVDTSASTAYMELSSLRSEDTAVYYCARRGFFLYYGINYYYFDVWGQGTLVTVSS
VL: EIVLTQSPATLSASPGERITLSCSASSSVSYIHWYQQKPGQAPRLLIYSTSNLASGIPARFSGSGSGTFYTLTISSVEPEDAAVYYCHQWSSYPWTFGGGTKLEIKR
B11: ANTI-HUMAN ENTPD2 MAB18 (antibody, human IgG1, kappa, V domains shown)
VH: DIQLQESGPGLVKPSQSLSLTCSVTGYSITSGYYWNWIRQFPGNKLEWMGYISYDGDNNYNPSLKNRISITRDTSKNQFFLKLSSVTTEDTATYYCAGGYYRYGLGSYSGSYYYVMDYWGQGTSVTVSS
VL: DTVLTQSPASLAVSLGQRATISCKASQSVDYDGNSYMNWYQQKPGQPPKLLIYAASNLESGIPARFSGSGSGTDFTLNIHPVEEEDAATYYCQQSNEDPPTFGGGTKLEIKR
B12: ANTI-HUMAN ENTPD2 MAB12 (antibody, human IgG1, kappa, V domains shown)
VH: EVLLVESGGGLVQPGGSLRLSCAASGFTFNSCSMNWVRQAPGKGLEWVSYISSSSSTIYYADSVKGRFTISRDNAKNSLYLQMNSLKDEDTAVYYCARDQGNWNYDDYYNGLDVWGQGTTVTVSS
VL: not shown
B13: ANTI-HUMAN ENTPD2 MAB11 (antibody, human IgG1, kappa, V domains shown)
VH: EVQLLESGGGLVQSGGSLRLSCAASGFTFSSYAMSWVRQAPGKGLEWVSVISGSGGSTYYADSVKGRFTISRDNSKNTLYLQMNSLRAEDTAVYYCARGDDYGDDYYYYGMDVWGQGTTVTVSS
VL: not shown
B14: ANTI-HUMAN ENTPD2 MAB19 (antibody, human IgG1, kappa, V domains shown)
VH: EVQLQQFGAELVKPGTSVKISCKASGYTFTDYNMDWVKQSHGKSLEWIGDINPNYDITTYNQRFKGKATLTVDKSSSTAYMELRSLTSEDTAVYYCARRGFFPYYGNSYYYFDVWGAGTTVTVSS
VL: QIVLTQSPTIMSASLGEEITLTCSASSSVSYMHWYQQKSGTSPKLLIYSTSNLASGVPSRFSGSGSGTFYSLTISSVEAEDAADYYCHQWSNYPWTFGGGTKLEIKR
B15: ANTI-HUMAN ENTPD2 MAB21 (antibody, human IgG1, kappa, V domains shown)
VH: EVQLQQSGPELVKPGASVKISCKTSGYTFTEYTMHWVKQSHGKSLEWIGGINPNNGITTYNQKFKGKATLTVDKSSSTAYMDLRSLTSEGSAVYYCARRGFPIYYYGTSLYYFDYWGQGTTLTVSS
VL: B14 VL with T9A, K38R, S49T, N92S
B16: ANTI-HUMAN ENTPD2 MAB20 (antibody, human IgG1, kappa, V domains shown)
VH: B14 VH with T16A, T59S, R63K, P103L, N107S
VL: B14 VL with T9A, N92S

Target: T1, cynomolgus ENTPD2, full length, on cells (cynomolgus macaque, UniProt Q9Y5L3 1-495 (human entry))
T1 chain: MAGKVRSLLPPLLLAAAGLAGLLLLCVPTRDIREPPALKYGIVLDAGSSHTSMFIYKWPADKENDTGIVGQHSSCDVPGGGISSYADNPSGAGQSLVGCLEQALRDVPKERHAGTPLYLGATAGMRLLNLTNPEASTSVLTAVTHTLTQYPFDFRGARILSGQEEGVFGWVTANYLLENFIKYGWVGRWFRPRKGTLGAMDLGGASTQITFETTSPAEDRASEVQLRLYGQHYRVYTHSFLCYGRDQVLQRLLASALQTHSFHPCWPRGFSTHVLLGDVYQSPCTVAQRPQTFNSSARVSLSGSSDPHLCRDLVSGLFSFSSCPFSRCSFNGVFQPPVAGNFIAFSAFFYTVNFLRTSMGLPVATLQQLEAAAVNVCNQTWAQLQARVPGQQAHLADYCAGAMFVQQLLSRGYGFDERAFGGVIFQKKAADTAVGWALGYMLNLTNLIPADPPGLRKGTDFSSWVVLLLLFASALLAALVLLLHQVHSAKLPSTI
Experiment: cell-based or functional assay

Binder	Cyno ENTPD2 NIH/3T3 Assay % inhibition	Cyno ENTPD2 NIH/3T3 Assay IC50
B1	75%	2.2 nM
B2	73%	3.3 nM
B3	80%	1.5 nM
B4	96%	0.9 nM
B5	71%	0.3 nM
B6	86%	0.5 nM
B7	91%	4.1 nM
B8	84%	2.7 nM
B9	82%	2.7 nM
B10	84%	5.8 nM
B11	68%	20 nM

These binders were tested against T2, human ENTPD2, full length, on cells (human, UniProt Q9Y5L3 1-495) (assay: cell-based or functional assay).
T2 sequence: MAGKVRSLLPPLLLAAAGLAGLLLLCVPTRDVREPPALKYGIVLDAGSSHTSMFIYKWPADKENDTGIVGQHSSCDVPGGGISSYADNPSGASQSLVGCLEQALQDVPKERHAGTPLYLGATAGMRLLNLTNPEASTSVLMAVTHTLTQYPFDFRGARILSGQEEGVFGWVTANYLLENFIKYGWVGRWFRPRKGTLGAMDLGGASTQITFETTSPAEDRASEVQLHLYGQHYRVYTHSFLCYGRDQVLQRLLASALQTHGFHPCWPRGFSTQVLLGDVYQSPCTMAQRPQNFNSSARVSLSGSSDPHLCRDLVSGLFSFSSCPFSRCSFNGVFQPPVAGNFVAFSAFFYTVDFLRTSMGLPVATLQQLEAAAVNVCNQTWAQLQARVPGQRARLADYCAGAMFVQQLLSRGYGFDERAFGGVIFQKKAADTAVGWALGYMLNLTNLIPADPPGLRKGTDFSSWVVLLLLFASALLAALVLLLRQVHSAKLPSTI

Binder	Human ENTPD2 NIH/3T3 Assay % inhibition	Human ENTPD2 NIH/3T3 Assay IC50	RKO Assay % inhibition	RKO Assay IC50
B1	87%	0.2 nM	74%	0.2 nM
B2	95%	0.3 nM	90%	0.2 nM
B3	95%	0.3 nM	80%	0.2 nM
B12	68%	26.6 nM		
B4	97%	0.1 nM	95%	0.2 nM
B5	92%	0.3 nM	70%	0.1 nM
B6	88%	0.4 nM	77%	0.2 nM
B7	92%	1.1 nM	97%	0.8 nM
B13	55%	1.5 nM		
B8	98%	1.4 nM	86%	0.8 nM
B9	95%	0.8 nM	92%	0.6 nM
B10	91%	1.8 nM	95%	1.6 nM
B11	88%	0.4 nM		

The binders below were run against recombinant human ENTPD2 extracellular domain (residues 29-462) with C-terminal Avi-His6 tag (human, UniProt Q9Y5L3 29-462) (assay: cell-based or functional assay).

Binder	ENTPD2 Biochemical Assay at 1 uM ATP IC50
B14	4.09 nM
B15	0.87 nM
B16	17.5 nM
B7	0.52 nM
